Holding throughout (type): cell-based
Experiment [1] deals with T1, LMO2-iDAb LMO2dm3 interaction (Homo sapiens, UniProt P25791).
T1 construct: LMO2 cDNA was cloned into the pEF-RLuc8-MCS and pEF-MCS-RLuc8 plasmids; expressed in transfected cells; host or cells: HEK293T
T1 sequence (P25791 1-158): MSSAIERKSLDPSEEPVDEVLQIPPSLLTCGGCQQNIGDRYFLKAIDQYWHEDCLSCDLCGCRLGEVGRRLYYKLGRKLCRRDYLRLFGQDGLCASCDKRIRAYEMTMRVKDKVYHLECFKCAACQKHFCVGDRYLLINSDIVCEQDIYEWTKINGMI
In words: BRET competition / dose-response assay on LMO2-iDAb LMO2dm3. The conditions noted are these: HEK-293T, HEK293T, Fig. 4C. The method, then: (§1) For all BRET experiments (titration curves and competition assays), 650,000 HEK293T were seeded in each well of six-well plates. After 24 hours at 37°C, cells were transfected with a total of 1.6 μg of DNA mix, containing the donor + acceptor ± competitor plasmids, using Lipofectamine 2000 transfection reagent (Thermo Fisher Scientific). For the BRET donor saturation assays, cells were transfected with 0.05 μg of donor (LMO2) and with an increased amount of acceptor plasmid (0.025, 0.05, 0.1, 0.25, 0.5, 0.75, and/or 1 μg of DNA) equalized to a total amount of 1.6 μg of DNA with an empty vector pEF-cyto-myc. […] Cells were detached 24 hours later, washed with phosphate-buffered saline (PBS), and seeded in a white 96-well plate (clear bottom, PerkinElmer, catalog no. 6005181) in Opti-MEM without phenol red medium complemented with 4% FBS, and cells were incubated for an additional 20 to 24 hours at 37°C before the BRET assay reading. […]
(§2) BRET2 signal was determined immediately after injection of coelenterazine 400a substrate (10 μM final concentration) to cells (Cayman Chemicals) using a CLARIOstar instrument (BMG Labtech) with a luminescence module. Total GFP^2 fluorescence was detected with excitation and emission peaks set at 405 and 515 nm, respectively. Total RLuc8 luminescence was measured with the luminescence 400- to 700-nm wavelength filter. […]

Another experiment concerns the target T2, LMO2-LDB1 interaction (Homo sapiens, UniProt P25791).
T2 construct: LMO2 cDNA was cloned into the pEF-RLuc8-MCS and pEF-MCS-RLuc8 plasmids; expressed in transfected cells; host or cells: HEK293T
T2 sequence (P25791 1-158): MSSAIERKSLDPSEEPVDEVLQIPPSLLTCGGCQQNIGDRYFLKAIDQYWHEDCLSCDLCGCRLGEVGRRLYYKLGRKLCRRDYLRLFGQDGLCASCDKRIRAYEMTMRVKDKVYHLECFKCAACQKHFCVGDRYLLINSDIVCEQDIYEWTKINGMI
In words: BRET assay on LMO2-LDB1. As to conditions: BRET competition, fig. S7E. As for the experimental part: as §1, §2
For orientation: Bioluminescence resonance energy transfer reports proximity on the nanometre scale.

For experiment [2], the target named is T3, LMO2-TAL1 + E47 interaction (Homo sapiens, UniProt P25791).
T3 construct: LMO2 cDNA was cloned into the pEF-RLuc8-MCS and pEF-MCS-RLuc8 plasmids; expressed in transfected cells; host or cells: HEK293T
T3 sequence (P25791 1-158): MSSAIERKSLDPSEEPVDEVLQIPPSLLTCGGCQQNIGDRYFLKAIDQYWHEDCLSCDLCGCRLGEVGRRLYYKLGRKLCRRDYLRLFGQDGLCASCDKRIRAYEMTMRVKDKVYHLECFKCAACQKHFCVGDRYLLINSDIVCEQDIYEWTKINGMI
The experiment in a line: BRET assay on LMO2-TAL1 + E47. As to conditions: BRET competition, fig. S7D. The method, then:
as §1, §2

The target of another experiment is T4, LMO2 (Homo sapiens, UniProt P25791).
T4 construct: LMO2 cDNA was cloned into the pEF-RLuc8-MCS and pEF-MCS-RLuc8 plasmids; expressed in transfected cells; host or cells: HEK293T
T4 sequence (P25791 1-158): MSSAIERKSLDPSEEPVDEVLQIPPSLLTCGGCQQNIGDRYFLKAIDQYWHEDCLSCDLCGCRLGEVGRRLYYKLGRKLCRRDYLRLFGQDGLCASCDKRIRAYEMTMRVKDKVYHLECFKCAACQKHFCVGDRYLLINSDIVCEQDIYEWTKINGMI
In words: Single-dose BRET competition of LMO2-RLuc8 and GFP2-iDAb LMO2dmx by unmutated iDAb LMO2. As to conditions: lowest dose of competitor 0.1 μg, label = GFP2-iDAb acceptor, Fig. 2D.

By inhibition is commonly meant how much of the control response was suppressed. On to `COc1ccc(CN2CCN(c3nc(C(=O)Nc4ccc(-n5cccc5)cc4)co3)CC2)cc1` [Abd-L19], for which at 20 µM the inhibition in experiment [1] was 45%.

B1: iDAb LMO2: intracellular VH single domain antibody binding to LMO2 (antibody, V domains shown)
VH: EVQLLESGGGLVQPGGSLRLSCAASGFSFSHSPMNWVRQAPGKGLEWVSYISYNSSSIYYADSVKGRFTISRDNSKNTLYLQMNSLRAEDTAVYYCARGLTESLELTADWFDYWGQGTLVTVSS
Take B1: in the experiment with LMO2-LDB1 interaction, the “effect of coexpressed nontagged iDAb on LMO2-LDB1 BRET signal” value is on record as “inhibited BRET signal”. For the same molecule, the “effect of coexpressed nontagged iDAb on LMO2-TAL1 + E47 BRET signal” value in experiment [2] is given as “inhibited BRET signal”.

B2: iDAb LMO2dm3: iDAb LMO2 mutant S28G, H31G, S55A, E102A, T107A, chosen for the screen (antibody, V domains shown)
VH: EVQLLESGGGLVQPGGSLRLSCAASGFGFSGSPMNWVRQAPGKGLEWVSYISYNASSIYYADSVKGRFTISRDNSKNTLYLQMNSLRAEDTAVYYCARGLTASLELAADWFDYWGQGTLVTVSS
In the case of B2, the “percentage inhibition by iDAb LMO2 compared to iDAb Ctl of the interaction of the labelled acceptor iDAb with LMO2” value with LMO2 is listed as ~ 90%.

Values taken from PMC8034850, “A cell-based screening method using an intracellular antibody for discovering small molecules targeting the translocation protein LMO2” (Science Advances, 2021).
